Reference: article PMC10328973 (Nature Communications, 2023)

T1: AMS2b E2E1-I53-50A trimer (Hepatitis C virus genotype 2b, strain …, stabilised)
T1 construct: also called AMS2b E2E1 trimer; source: HEK293F, co-transfected with furin, purified (Strep-TactinXT, SEC); copies: 3 + 3
T1 chain 1: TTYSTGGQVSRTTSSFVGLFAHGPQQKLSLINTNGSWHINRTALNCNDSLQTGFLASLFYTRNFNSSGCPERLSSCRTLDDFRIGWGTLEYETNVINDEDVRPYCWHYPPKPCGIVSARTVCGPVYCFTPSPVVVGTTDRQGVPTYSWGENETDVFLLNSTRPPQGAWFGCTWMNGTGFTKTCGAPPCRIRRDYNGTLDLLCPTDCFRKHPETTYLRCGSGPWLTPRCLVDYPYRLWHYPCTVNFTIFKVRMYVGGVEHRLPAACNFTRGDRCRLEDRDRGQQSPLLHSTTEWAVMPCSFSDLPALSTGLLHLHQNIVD
T1 chain 2: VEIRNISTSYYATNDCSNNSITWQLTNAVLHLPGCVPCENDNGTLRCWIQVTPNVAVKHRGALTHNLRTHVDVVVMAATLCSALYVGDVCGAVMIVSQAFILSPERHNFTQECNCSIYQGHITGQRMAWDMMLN

T2: AMS3a E2E1-I53-50A trimer (Hepatitis C virus genotype 3a, strain …, stabilised)
T2 construct: also called AMS3a E2E1 trimer; source: HEK293F, co-transfected with furin, purified (Strep-TactinXT, SEC); copies: 3 + 3
T2 chain 1: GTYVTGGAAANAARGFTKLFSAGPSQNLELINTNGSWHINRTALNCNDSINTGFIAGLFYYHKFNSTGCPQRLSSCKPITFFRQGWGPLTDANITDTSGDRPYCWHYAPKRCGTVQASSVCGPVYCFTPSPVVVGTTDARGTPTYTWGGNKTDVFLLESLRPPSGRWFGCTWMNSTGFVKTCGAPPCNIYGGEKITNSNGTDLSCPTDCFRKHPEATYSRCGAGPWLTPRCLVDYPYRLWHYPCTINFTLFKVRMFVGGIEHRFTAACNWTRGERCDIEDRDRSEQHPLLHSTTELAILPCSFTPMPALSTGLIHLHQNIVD
T2 chain 2: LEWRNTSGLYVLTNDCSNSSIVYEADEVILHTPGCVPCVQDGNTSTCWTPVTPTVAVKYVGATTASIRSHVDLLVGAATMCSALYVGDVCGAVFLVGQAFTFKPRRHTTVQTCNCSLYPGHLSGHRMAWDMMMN


Columns and labels:
[1] = target: T3, H77 E2E1-I53-50A trimer (Hepatitis C virus genotype 1a, strain …, UniProt P27958, stabilised); assay: ELISA; settings: both partners purified
T3 construct: source: HEK293F, co-transfected with furin, purified (Strep-TactinXT, SEC); copies: 3 + 3

[2] = target: T4, AMS2b E2E1-I53-50A trimer (Hepatitis C virus genotype 2b, strain …, stabilised); assay: ELISA; settings: both partners purified
T4 construct: also called AMS2b E2E1 trimer; source: HEK293F, co-transfected with furin, purified (Strep-TactinXT, SEC); copies: 3 + 3

[3] = target: T5, AMS3a E2E1-I53-50A trimer (Hepatitis C virus genotype 3a, strain …, stabilised); assay: ELISA; settings: both partners purified
T5 construct: also called AMS3a E2E1 trimer; source: HEK293F, co-transfected with furin, purified (Strep-TactinXT, SEC); copies: 3 + 3

[4] = target: T6, UKNP4.1.1 E2E1-I53-50A trimer (Hepatitis C virus genotype 4a, strain …, UniProt A0A0U3JDN1, stabilised); assay: ELISA; settings: both partners purified
T6 construct: also called UKNP4.1.1 E2E1 trimer; source: HEK293F, co-transfected with furin, purified (Strep-TactinXT, SEC); copies: 3 + 3

[5] = target: T7, UKNP5.2.1 E2E1-I53-50A trimer (Hepatitis C virus genotype 5, strain …, UniProt A0A0U3TV66, stabilised); assay: ELISA; settings: both partners purified
T7 construct: also called UKNP5.2.1 E2E1 trimer; source: HEK293F, co-transfected with furin, purified (Strep-TactinXT, SEC); copies: 3 + 3

[6] = target: T8, UKNP6.1.2 E2E1-I53-50A trimer (Hepatitis C virus genotype 6, strain …, UniProt A0A0U3SJ35, stabilised); assay: ELISA; settings: both partners purified
T8 construct: also called UKNP6.1.2 E2E1 trimer; source: HEK293F, co-transfected with furin, purified (Strep-TactinXT, SEC); copies: 3 + 3

[7] = target: T7, UKNP5.2.1 E2E1-I53-50A trimer; assay: cell-based or functional assay
[8] = target: T1, AMS2b E2E1-I53-50A trimer; assay: ELISA; settings: both partners purified
[9] = target: T2, AMS3a E2E1-I53-50A trimer; assay: ELISA; settings: both partners purified
[10] = target: T9, UKNP4.1.1 E2E1-I53-50A trimer (Hepatitis C virus genotype 4a, strain …, UniProt A0A0U3JDN1, stabilised); assay: ELISA; settings: both partners purified; remark: listed apart in the source
T9 construct: also called UKNP4.1.1 E2E1 trimer; source: HEK293F, co-transfected with furin, purified (Strep-TactinXT, SEC); copies: 3 + 3

[11] = target: T10, UKNP5.2.1 E2E1-I53-50A trimer (Hepatitis C virus genotype 5, strain …, UniProt A0A0U3TV66, stabilised); assay: ELISA; settings: both partners purified; remark: listed apart in the source
T10 construct: also called UKNP5.2.1 E2E1 trimer; source: HEK293F, co-transfected with furin, purified (Strep-TactinXT, SEC); copies: 3 + 3

[12] = target: T11, UKNP6.1.2 E2E1-I53-50A trimer (Hepatitis C virus genotype 6, strain …, UniProt A0A0U3SJ35, stabilised); assay: ELISA; settings: both partners purified; remark: listed apart in the source
T11 construct: also called UKNP6.1.2 E2E1 trimer; source: HEK293F, co-transfected with furin, purified (Strep-TactinXT, SEC); copies: 3 + 3

Row | Binder | binding result [1] | binding result [2] | binding result [3] | binding result [4] | binding result [5] | binding result [6] | neutralisation of UKNP5.2.1 HCVpp, IC50 [7] [µg/mL] | binding result [8] | binding result [9] | binding result [10] | binding result [11] | binding result [12]
1 | AR3C (antibody, V domains shown, also called mature AR3C; conventional AR3C; source: HEK293F, transfected, purified (protein A/G)) VH: VQLLEQSGAEVKKPGSSVKVSCETSGGTFDNYALNWVRQAPGQGLEWIGGVVPLFGTTRNAQKFQGRVTISDDKSTGTGHMELRSLRSEDTAVYYCVRSVTPRYCGGGFCYGEFDYWGQGTLVTVSS VL: EIELTQSPATLSVSPGERATLSCRASQSVSSNLAWYQQKPGQAPRLLIYGASTRATGIPARFSGSGSGTEFTLTVSRLEPEDSAVYFCQQYYRSPLTFGGGTKVEIK | binds | binds | binds | binds | binds | binds |  |  |  |  |  | 
2 | HEPC3 (antibody, V domains shown, also called mature HEPC3; source: HEK293F, transfected, purified (protein A/G)) VH: QVQLVQSGAEVKKPGSSVKVSCKASGGTLNSYEITWVRQAPGQGLEWMGGITPIFETTYAQKFQGRVTITADESTSTTYMELSSLRPEDTAVYYCARDGVRYCGGGRCYNWFDPWGQGTLVTVSS VL: DIQMTQSPSSLSASVGDRVTITCRAGQNINNYLNWYQQKPGKAPKVLIYAASNLQSGVPSRFSGSGSGTDFTLTISSLQPEDFATYYCQQSHSTVRTFGQGTKVEIK | binds | binds | binds | binds | binds | binds |  |  |  |  |  | 
3 | HEPC74 (antibody, V domains shown, also called mature HEPC74; conventional HEPC74; source: HEK293F, transfected, purified (protein A/G)) VH: QVQLVQSGAEVKKPGSSVKVSCTTSGGTYINYAISWVRQAPGQGLEWVGGMSPISNTPKYAQKFQGRVTITADESTSTTYMELSSLRPEDTAVYYCARDLLKYCGGGNCHSLLVDPWGQGTLVTVSS VL: DIVMTQSPSTLSASVGDRVTISCRASQSISSWLAWYQQKPGRAPKLLIYKASSLETGVPSRFSGSGSGTEFTLTISSLQPDDFATYYCQHYNTYLFTFGPGTKVDLK | binds | binds | binds |  |  |  | 0.03 |  |  |  |  | 
4 | HEPC74 S54L (antibody, V domains shown, human IgG1; source: HEK293F, transfected, purified (protein A/G)) VH: QVQLVQSGAEVKKPGSSVKVSCTTSGGTYINYAISWVRQAPGQGLEWVGGMSPILNTPKYAQKFQGRVTITADESTSTTYMELSSLRPEDTAVYYCARDLLKYCGGGNCHSLLVDPWGQGTLVTVSS VL: DIVMTQSPSTLSASVGDRVTISCRASQSISSWLAWYQQKPGRAPKLLIYKASSLETGVPSRFSGSGSGTEFTLTISSLQPDDFATYYCQHYNTYLFTFGPGTKVDLK | binds | binds | binds | binds | binds | binds |  |  |  |  |  | 
5 | AT1209 (antibody, V domains shown, also called mature AT1209; source: HEK293F, transfected, purified (protein A/G)) VH: QVLVQSGAEVKKPGSSVRVSCKASGDTFKTHAISWVRQAPGQGLEWVGGTVRQAPGDGLELLGGFVPILAPANDAQKFQGRVTITADGSTGPVYMDLSTLTSEDTAMYYCVTSLSEPIPRSCRGGRCYSGPFDAFGVWGQ VL: EIMLTQSPVTLSVSPGERATLSCRASQSIGTNLAWYQKPGQAPRLLIHGASTRATGVPVSFSGSGSGTEFTLTISSLQSEDFAVYYCQQYNNWPLTFGGGTKVEIK | binds | binds | binds | binds | binds | binds |  |  |  |  |  | 
6 | AR3D (antibody, V domains shown, also called mature AR3D; source: HEK293F, transfected, purified (protein A/G)) VH: LLEQSGAEVKKPGSSVKVSCKASGDTFRSYVITWARQAPGQGLEWMGAIIPFFGTTNLAQKFQGRVTITADESTKTVYMDLSSLRSDDTAVYYCAKAGDLSVGGVLAGGVPHLRHFDPWGQGTLVTVSS VL: ELTQSPGTLSLSPGERATLSCRAGQTVASNSLAWYQHKPGQAPRLLIYGASIRASGIPDRFSGSGSGTDFTLTISRLEPEDFAVYYCQQYGLSSTFGQGTRLEIK | binds |  |  |  |  |  |  | binds | binds | binds | binds | binds
